The text below walks through data of the supplement of paper PMC10567573.

The nature of the series: protein stability index of a GFP-peptide fusion (GPS, HEK-293T) (PSI 1-6); higher = more stable.
The mark [1] stands for this setting: treatment: DMSO, c terminus: a fixed tail appended.
The mark [2] stands for this setting: treatment: MLN4924 1 uM, 8 h, c terminus: a fixed tail appended.

± gives the standard deviation.
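Note: 24-mer peptide tiles fused after GFP, lentivirally expressed, FACS-sorted into six equal bins by GFP/DsRed ratio, decoded by Illumina sequencing, PSI is the read-weighted mean bin number.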

In the case of VQRLTSRAARDYKIQNHGHRVLQR [FCHSD1], the protein stability index was 3.33 ± 0.08 under setting [1] and 3.44 ± 0.1 under setting [2]. As for VQRTQSVPVRRPARRRQSAGPWPR [RASAL3], the protein stability index by setting is: under setting [1], 4.55 ± 0.26; under setting [2], 4.48 ± 0.096.

VRDGFSATFEKILESELLRGTQYS [PSD2]: the protein stability index under setting [1] was found to be 2.29 ± 0.35 and the protein stability index under setting [2] was 2.31 ± 0.12.

With VRTLEGVFQHHQYLSPLERKRLAR [VENTX], the protein stability index was 3.23 ± 0.23 under setting [1] and 3.54 ± 0.47 under setting [2]. Regarding VRTMQNTNDVETARCTAGTLHNLS [CTNNB1], the protein stability index is, setting by setting: under setting [1], 3.57 ± 0.33; under setting [2], 3.81 ± 0.32. VSAYVDTTADLDRKLSFSHSDHSS [SPATS1]: the protein stability index by setting is: under setting [1], 3.83 ± 0.1; under setting [2], 4.08 ± 0.24.

In turn, VSISIISSTSGGSGYGFRPSMVSG [KRT71] came in with a protein stability index under setting [1] of 2.84 ± 0.52 and a protein stability index under setting [2] of 3.01 ± 0.93.

On to VSKTLPSTWSDPSVNISLDNLLPG [CLINT1], for which the protein stability index came out at 3.35 ± 0.17 under setting [1] and 3.56 ± 0.16 under setting [2]. As to VSLGQKLVAAYVLGLLTMVFLRT [MOSPD3], the protein stability index (treatment: DMSO, c terminus: native) was found to be 2.56 ± 0.71 and the protein stability index (treatment: MLN4924 1 uM, 8 h, c terminus: native) was 2.07 ± 0.42. Consider VTDCKHTEDVGVVCSDKRIPGFKF [LOXL2], for which the protein stability index is, setting by setting: under setting [1], 3.61 ± 0.35; under setting [2], 3.77 ± 0.16. In the case of VTDINDNAPKFQAENLDVKINENV [PCDHGA10], the protein stability index under setting [1] was 5.22 ± 0.1 and the protein stability index under setting [2] came to 5.01 ± 0.37.

Turning to VTLIVDNTRFVVDPSIFTAQPNTM [BTBD10], the protein stability index turned out to be 2.84 ± 0.51 under setting [1] and 3.2 ± 0.74 under setting [2]. The matching figures for VTLKYEIKKLIYVHLVIWLLLVAK [JAGN1]: 2.33 ± 0.52 and 2.27 ± 0.3. With VVAEAQTRVSQLGLQVEGLRRRLE [LRRC45], the protein stability index reads like this: under setting [1], 3.71 ± 0.4; under setting [2], 3.82 ± 0.51. Consider VVAVDRDSGQNAWLSYRLLKASEP [PCDHGA10], for which the protein stability index under setting [1] stood at 2.56 ± 0.17 and the protein stability index under setting [2] is 2.6 ± 0.31.

VVKVISTIPATLLVDHVGSKTFLC [SLC2A12] yielded a protein stability index under setting [1] of 2.95 ± 0.43 and a protein stability index under setting [2] of 2.75 ± 0.37. Consider VVPSYIPLVKKHCDDSFTPQEKLW [CPOX], for which the protein stability index is, setting by setting: under setting [1], 2.93 ± 0.15; under setting [2], 2.98 ± 0.35. Take VVVKLLHPPSHWPLIKATVGLIRN [CTNNB1]: the protein stability index reads like this: under setting [1], 2.48 ± 0.66; under setting [2], 2.51 ± 0.64. Turning to VWTNDQVVHWVQSIGLRDYAGNLH [PPFIA4], the protein stability index is, setting by setting: under setting [1], 2.16 ± 0.53; under setting [2], 2.11 ± 0.29. For the sequence VWWVSQFVKYLIRPQPWLEKEIEE [FUT8], the protein stability index by setting is: under setting [1], 2.32 ± 0.46; under setting [2], 2.035 ± 0.002. In the case of VYRAELVGELNGYLRDSSPAPCAD [PWWP2B], the protein stability index runs as follows: under setting [1], 3.31 ± 0.21; under setting [2], 3.52 ± 0.27.

Regarding VYRDLKPENILLDRDGHIKLTDFG [PRKX], the protein stability index reads like this: under setting [1], 3.07 ± 0.28; under setting [2], 3.54 ± 0.24. For VYSLEPRLCGGKGGFGSMLRALGA [SDE2], the protein stability index was 2.24 ± 0.45 under setting [1] and 2.1 ± 0.081 under setting [2]. The matching figures for WDLRDQSVVRDLKGYPDGVKSIVV [TLE6]: 2.63 ± 0.25 and 2.63 ± 0.077. As for WKCKNARGQVGLVPKNYVVVLSDG [NCK2], the protein stability index runs as follows: under setting [1], 2.15 ± 0.26; under setting [2], 2.31 ± 0.45.

Turning to WMWLSCSSFFQQFFHCYCPVGFGR [CRY1], the protein stability index runs as follows: under setting [1], 2.42 ± 0.2; under setting [2], 2.4 ± 0.25.

For WVTFQVLLYTSLPDFCHKFLPGYV [DHCR7], the protein stability index turned out to be 3.4 ± 0.055 under setting [1] and 3.01 ± 0.91 under setting [2]. Regarding YADFERFSKVLEEAAAAEEGLREL [DAPK3], the protein stability index under setting [1] came to 2.46 ± 0.18. In the case of YAIAGYDGNSLLSSIECYDPIIDS [KLHL12], the protein stability index under setting [1] came out at 2.83 ± 0.48 and the protein stability index under setting [2] is 3.01 ± 0.36. Consider YDGLDCQARQFRTFHHPTYGSCYT [SCNN1D], for which the protein stability index is 2.54 ± 0.1 under setting [1] and 2.59 ± 0.18 under setting [2]. For the sequence YESDSSNHCMLSPSSSGHLADSDT [C18orf25], the protein stability index under setting [1] was 5.18 ± 0.33 and the protein stability index under setting [2] amounted to 5.28 ± 0.21.

Under setting [2], YFTQTLLPGLAGPSGEMVKSTTSL [MLH1] registered a protein stability index of 2.51 ± 0.21.

For YHTSQSGDEMTSLSEYVSRMKETQ [HSP90AB1], the protein stability index runs as follows: under setting [1], 3.9 ± 0.25; under setting [2], 3.96 ± 0.23. The like results for YIAAFLHVLLPVALEFQPQLVLVA [HDAC6] were, in that order, 3.25 ± 0.84 and 3.14 ± 0.41.

Take YKDTCHELDELQLCKNCFYLSNAR [ZMYND11]: the protein stability index is, setting by setting: under setting [1], 2.66 ± 0.31; under setting [2], 3.02 ± 0.25.

In the case of YKGLFEVNPWKREVKLLLSSETPI [APMAP], the protein stability index amounted to 2.71 ± 0.3 under setting [1] and 2.14 ± 0.18 under setting [2]. As to YKVRHVHWKTWLAIKCSPSLHVDD [RIPK4], the protein stability index reads like this: under setting [1], 2.16 ± 0.34; under setting [2], 1.98 ± 0.44. Consider YLEVAKHFKPHGFSSDKAKAGSSE [ATF4], for which the protein stability index by setting is: under setting [1], 3.97 ± 0.092; under setting [2], 4.24 ± 0.33.

YLGSAYHASKCEFLANLHITALLN [DUSP5]: the protein stability index is, setting by setting: under setting [1], 2.58 ± 0.69; under setting [2], 2.61 ± 0.47.

For the sequence YLLDRAVDSFETQRNGLVFIYDMC [PTPN9], the protein stability index amounted to 2.36 ± 0.47 under setting [1] and 2.29 ± 0.29 under setting [2]. In the case of YLTIILILISFTCRFLLNSRVTDA [TMEM120A], the protein stability index reads like this: under setting [1], 3.19 ± 0.26; under setting [2], 3.12 ± 0.24. The matching figures for YLTNCEKLSAKSLQTLRSFSHTLV [ZER1]: 2.3 ± 0.16 and 2.24 ± 0.38. Regarding YMVRRYFNKPSRVPAPEAFRDPIW [MYORG], the protein stability index is, setting by setting: under setting [1], 2.27 ± 0.25; under setting [2], 2.12 ± 0.39. The like results for YNIRTDSWTTVTSMTTPRCYVGAT [KLHL12] were, in that order, 2.44 ± 0.23 and 2.67 ± 0.33. For YNSFHKLRDRAERIASRAIDNAAD [SNX8], the protein stability index under setting [1] worked out at 3.98 ± 0.43 and the protein stability index under setting [2] was 4.14 ± 0.38.

As for YQGLPVRCVKSIIRQVLQGLDYLH [SRPK2], the protein stability index under setting [1] turned out to be 2.45 ± 0.27 and the protein stability index under setting [2] was 2.59 ± 0.41.

YQYFVCPVEYRSDVNSFVTECEPS [CDS1]: the protein stability index was found to be 2.35 ± 0.26 under setting [1] and 2.36 ± 0.37 under setting [2].

In the case of YRGTLKRQPAFDTFDGSLFAVFPS [ETS2], the protein stability index is, setting by setting: under setting [1], 2.31 ± 0.42; under setting [2], 2.08 ± 0.14. Take YSSEDSTLASVPPAATFGADDLVL [ELF3]: the protein stability index is, setting by setting: under setting [1], 4.5 ± 0.13; under setting [2], 4.48 ± 0.22.

Turning to YTPTAEDSAQMQNGGPSTPPASPP [ANKRD40], the protein stability index is 5.27 ± 0.22 under setting [1] and 5.16 ± 0.2 under setting [2].

On to YVALFPCNECAKLIIQAGIKEVIF [DCTD], for which the protein stability index by setting is: under setting [1], 2.73 ± 1.2; under setting [2], 2.96 ± 0.54. On to YVDIQGLTASTMEILLDFVYTETV [KLHL12], for which the protein stability index was determined as 3.564 ± 0.008 under setting [1] and 3.1 ± 1.2 under setting [2].

Consider YYIPLVELVPHPETAPTTVDRTHA [CRYL1], for which the protein stability index stood at 3.06 ± 0.28 under setting [1] and 3.1 ± 0.26 under setting [2].
